Laboratory results from patent US20130244255A1 (published 2013).

Legend:
[1] = target: T1, GPNMB (CG56972) as expressed by human cell lines (human, UniProt Q14956 23-492); assay: FACS on LOXIMVI cells
T1 construct: Endogenous or transfected full-length protein on cells (FACS, killing assays) or in cell lysates (immunoprecipitation, blot); also called native GPNMB protein
T1 sequence: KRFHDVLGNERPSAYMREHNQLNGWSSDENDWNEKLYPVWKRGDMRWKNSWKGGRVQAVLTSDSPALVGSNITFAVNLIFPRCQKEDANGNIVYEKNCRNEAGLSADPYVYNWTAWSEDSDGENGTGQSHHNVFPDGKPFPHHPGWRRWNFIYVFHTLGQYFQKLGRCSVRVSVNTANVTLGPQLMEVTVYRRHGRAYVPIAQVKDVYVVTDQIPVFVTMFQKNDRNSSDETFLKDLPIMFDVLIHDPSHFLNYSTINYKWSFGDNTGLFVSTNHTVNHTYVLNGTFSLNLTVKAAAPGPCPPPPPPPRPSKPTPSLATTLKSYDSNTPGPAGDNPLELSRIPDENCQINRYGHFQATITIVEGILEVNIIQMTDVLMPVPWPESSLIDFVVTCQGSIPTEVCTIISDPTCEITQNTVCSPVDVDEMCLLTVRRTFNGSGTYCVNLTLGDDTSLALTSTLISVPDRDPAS

[2] = target: T1, GPNMB (CG56972) as expressed by human …; assay: FACS on U-118-MG cells, CR011 10 ug/mL
Method: (§1) Quantitative analysis of CG56972 expression on the surface of cell lines was determined by flow cytometry (FACS). […] Cells were fixed in 1% paraformaldehyde/PBS and examined on a Becton Dickinson FACSCalibur flow cytometer. Data analysis was performed with Becton Dickinson Cell Quest software version 3.3 and the geometric mean fluorescence intensity ratio (GMR) was determined for each cell type.
Geometric Mean ratios (GMR) were determined by flow cytometric analysis.

[3] = target: T1, GPNMB (CG56972) as expressed by human …; assay: FACS on PL-21 cells, antibody 1 ug/mL
Method: (§2) Lymphoma or leukemia derived cells were washed twice with ice-cold FACS buffer and resuspended at 1 million cells per assay tube. […] Cells were then washed 2-3 times and resuspended in 1 mL of ice-cold FACS buffer. R-PE-conjugated goat anti-human antibody at 1:100 dilution was added and cells were incubated on ice for 30 min. Cells were washed 3 times with 1 mL of ice-cold FACS buffer, fixed with 0.5-1 mL of 1% formaldehyde in PBS and analyzed by Flow Cytometry.

[4] = target: T1, GPNMB (CG56972) as expressed by human …; assay: FACS on G361 cells
[5] = target: T1, GPNMB (CG56972) as expressed by human …; assay: FACS on MV4-11 cells, antibody 1 ug/mL
[6] = target: T1, GPNMB (CG56972) as expressed by human …; assay: FACS on D392-MG cells, CR011 10 ug/mL
Method: as §1

[7] = target: T1, GPNMB (CG56972) as expressed by human …; assay: FACS on KG1a cells, antibody 1 ug/mL
Method: as §2

[8] = target: T1, GPNMB (CG56972) as expressed by human …; assay: FACS on SR cells, antibody 1 ug/mL
Method: as §2

[9] = target: T1, GPNMB (CG56972) as expressed by human …; assay: FACS on HT144 cells
[10] = target: T1, GPNMB (CG56972) as expressed by human …; assay: FACS on WM115 cells
[11] = target: T1, GPNMB (CG56972) as expressed by human …; assay: FACS on D450-MG cells, CR011 10 ug/mL
Method: as §1

[12] = target: T1, GPNMB (CG56972) as expressed by human …; assay: FACS on WM-266-4 cells
[13] = target: T1, GPNMB (CG56972) as expressed by human …; assay: FACS on SIG-M5 cells, antibody 1 ug/mL
Method: as §2

[14] = target: T1, GPNMB (CG56972) as expressed by human …; assay: FACS on HL-60 cells, antibody 1 ug/mL
[15] = target: T1, GPNMB (CG56972) as expressed by human …; assay: FACS on T98G cells, CR011 10 ug/mL
Method: as §1

[16] = target: T1, GPNMB (CG56972) as expressed by human …; assay: FACS on HEMNLP cells
[17] = target: T1, GPNMB (CG56972) as expressed by human …; assay: FACS on UACC-257 cells
[18] = target: T1, GPNMB (CG56972) as expressed by human …; assay: FACS on Jurkat cells, antibody 1 ug/mL
Method: as §2

[19] = target: T1, GPNMB (CG56972) as expressed by human …; assay: FACS on SF-295 cells, CR011 10 ug/mL
Method: as §1

[20] = target: T1, GPNMB (CG56972) as expressed by human …; assay: FACS on WSU-NH2 cells, antibody 1 ug/mL
Method: as §2

[21] = target: T1, GPNMB (CG56972) as expressed by human …; assay: FACS on Karpas 299 cells, antibody 1 ug/mL
Method: as §2

[22] = target: T1, GPNMB (CG56972) as expressed by human …; assay: FACS on KG-1 cells, antibody 1 ug/mL
Method: as §2

[23] = target: T1, GPNMB (CG56972) as expressed by human …; assay: FACS on SU-DHL-1 cells, antibody 1 ug/mL
Method: as §2

[24] = target: T1, GPNMB (CG56972) as expressed by human …; assay: FACS on AML-193 cells, antibody 1 ug/mL

B1: CR011 mAb 1.15.1 (IgG2) (antibody)
heavy: QVQLQESGPGLVKPSQTLSLTCTVSGGSISSFNYYWSWIRHHPGKGLEWIGYIYYSGSTYSNPSLKSRVTISVDTSKNQFSLTLSSVTAADTAVYYCARGYNWNYFDYWGQGTLVTVSSASTKGPSVFPLAPCSRSTSESTAALGCLVKDYFPEPVTVSWNSGALTSGVHTFPAVLQSSGLYSLSSVVTVPSSNFGTQTYTCNVDHKPSNTKVDKTVERKCCVECPPCPAPPVAGPSVFLFPPKPKDTLMISRTPEVTCVVVDVSHEDPEVQFNWYVDGVEVHNAKTKPREEQFNSTFRVVSVLTVVHQDWLNGKEYKCKVSNKGLPAPIEKTISKTKGQPREPQVYTLPPSREEMTKNQVSLTCLVKGFYPSDIAVEWESNGQPENNYKTTPPMLDSDGSFFLYSKLTVDKSRWQQGNVFSCSVMHEALHNHYTQKSLSLSPGK
VL: not shown
notes: also called CR011.1.15.1; CR011 IgG2
[1]
  Geo Mean Ratio (relative to isotype): 1 ratio
[2]
  CR011 Fold Shift (GMR): 7.4 fold
[3]
  Geo Mean Ratio: 12 ratio
[4]
  Geo Mean Ratio (relative to isotype): 8 ratio
[5]
  Geo Mean Ratio: 1.9 ratio
[6]
  CR011 Fold Shift (GMR): 3.1 fold
[7]
  Geo Mean Ratio: 2.7 ratio
[8]
  Geo Mean Ratio: 7.1 ratio
[9]
  Geo Mean Ratio (relative to isotype): 7.4 ratio
[10]
  Geo Mean Ratio (relative to isotype): 1.3 ratio
[11]
  CR011 Fold Shift (GMR): 1.6 fold
[12]
  Geo Mean Ratio (relative to isotype): 13.6 ratio
[13]
  Geo Mean Ratio: 2.9 ratio
[14]
  Geo Mean Ratio: 2.3 ratio
[15]
  CR011 Fold Shift (GMR): 1.3 fold
[16]
  Geo Mean Ratio (relative to isotype): 10.2 ratio
[17]
  Geo Mean Ratio (relative to isotype): 7 ratio
[18]
  Geo Mean Ratio: 14.7 ratio
[19]
  CR011 Fold Shift (GMR): 1.8 fold
[20]
  Geo Mean Ratio: 1 ratio
[21]
  Geo Mean Ratio: 10.7 ratio
[22]
  Geo Mean Ratio: 6.9 ratio
[23]
  Geo Mean Ratio: 4.8 ratio
[24]
  Geo Mean Ratio: 1.8 ratio
